Laboratory results taken from patent US20120207760A1.

How the values were obtained:
Settings in all cases: remark: other sources report otherwise
[1] = molecular target: T1, recombinant homotrimeric HA, A/Wisconsin/67/05 H3N2 (Influenza A virus A/Wisconsin/67/05 (H3N2)); test: trimeric HA microarray, transfection set 5
[2] = molecular target: T2, recombinant homotrimeric HA, A/Japan/305/57 H2N2 (Influenza A virus A/Japan/305/57 (H2N2)); test: trimeric HA microarray, transfection set 5
[3] = molecular target: recombinant homotrimeric HA, A/California/4/09 H1N1 (Influenza A virus A/California/4/09 (H1N1)); test: trimeric HA microarray, transfection set 5
[4] = molecular target: T3, recombinant homotrimeric HA, A/swine/Ontario/01911-2/99 H4N6 (Influenza A virus A/swine/Ontario/01911-2/99 (H4N6)); test: trimeric HA microarray, transfection set 5
[5] = molecular target: T4, recombinant homotrimeric HA, A/South Carolina/1/18 H1N1 (Influenza A virus A/South Carolina/1/18 (H1N1)); test: trimeric HA microarray, transfection set 5
[6] = molecular target: T5, recombinant homotrimeric HA, A/Solomon Islands/3/06 H1N1 (Influenza A virus A/Solomon Islands/3/06 (H1N1)); test: trimeric HA microarray, transfection set 5
[7] = molecular target: recombinant homotrimeric HA, A/Vietnam/1203/04 H5N1 (Influenza A virus A/Vietnam/1203/04 (H5N1)); test: trimeric HA microarray, transfection set 5
[8] = molecular target: recombinant homotrimeric HA, A/Indonesia/5/05 H5N1 (Influenza A virus A/Indonesia/5/05 (H5N1)); test: trimeric HA microarray, transfection set 5
[9] = molecular target: recombinant soluble homotrimeric HA of A/chicken/Vietnam/NCVD-016/08 (H5N1) (Influenza A virus A/chicken/Vietnam/NCVD-016/08 (H5N1)); test: microarray, BCC supernatant IgG, trimeric HA
[10] = molecular target: recombinant soluble homotrimeric HA of A/northern shoveler/California/HKWF115/07 (Influenza A virus A/northern shoveler/California/HKWF115/2007); test: microarray, BCC supernatant IgG, trimeric HA
[11] = molecular target: T1, recombinant homotrimeric HA, …; test: trimeric HA microarray, transfection set 2
[12] = molecular target: T2, recombinant homotrimeric HA, …; test: trimeric HA microarray, transfection set 2
[13] = molecular target: T3, recombinant homotrimeric HA, …; test: trimeric HA microarray, transfection set 2
[14] = molecular target: recombinant homotrimeric HA, A/Netherlands/219/03 H7N7 (Influenza A virus A/Netherlands/219/03 (H7N7)); test: trimeric HA microarray, transfection set 2
[15] = molecular target: T4, recombinant homotrimeric HA, A/South …; test: trimeric HA microarray, transfection set 2
[16] = molecular target: T5, recombinant homotrimeric HA, A/Solomon …; test: trimeric HA microarray, transfection set 2
[17] = molecular target: recombinant homotrimeric HA, A/Hong Kong/1073/99 H9N2 (Influenza A virus A/Hong Kong/1073/99 (H9N2)); test: trimeric HA microarray, transfection set 2

Binder | Trimeric HA Binding RLU [1] | Trimeric HA Binding RLU [2] | Trimeric HA Binding RLU [3] | Trimeric HA Binding RLU [4] | Trimeric HA Binding RLU [5] | Trimeric HA Binding RLU [6] | Trimeric HA Binding RLU [7] | Trimeric HA Binding RLU [8] | Trimeric HA Binding: RLU [9] | Trimeric HA Binding: RLU [10] | Trimeric HA Binding RLU [11] | Trimeric HA Binding RLU [12] | Trimeric HA Binding RLU [13] | Trimeric HA Binding RLU [14] | Trimeric HA Binding RLU [15] | Trimeric HA Binding RLU [16] | Trimeric HA Binding RLU [17]
TCN-558 (5248_H10b) (antibody, V domains shown) VH: QVQLVQSGSEVKKPGTSVKVSCTASGSVFTNYGISWVRQAPGQGLEWMGGIIPLFGAAKYAQKFQGRVTITADESTKTVYMELSRLTSKDTAIYFCAKAPRVYEYYFDQWGQGTPVTVSS VL: EIVMTQFPATLSVSPGERVTLSCRASQSVSNNLAWYQQKPGQPPRLLIYDASTRATGVPAKFSGTGSGTEFTLSISSLQSEDFAVYYCQQYHNWPPSYSFGLGTKLEIK | 26600 RLU | 34400 RLU | 20200 RLU | 10000 RLU | 40700 RLU | 36100 RLU | – | – | – | – | – | – | – | – | – | – | –
TCN-552 (5249_I23) (antibody, V domains shown) VH: QVQVVQSGAEVKKPGSSVRVSCQASGGTFMNYAIIWVRRAPGQGLEWMGGIIPVFPTPNYAQMFQGRVTISTDESRSTSFLELTNLRYEDTAVYYCARRIYHGGNSGFDFWGQGTLVTVSS VL: EIVLTQSPATLSLSPGERATLSCRASQSVGNYLAWYQQKPGQAPRLLIYDSSNRAPGIPARFSGSGSGTDFTLTISSLAPEDFAVYYCQQRSKWPPMYSFGHGTKLEIK | 18500 RLU | 52000 RLU | 23500 RLU | 9080 RLU | 37400 RLU | 48600 RLU | 18500 RLU | 43400 RLU | – | – | – | – | – | – | – | – | –
TCN-548 (5092_P01) (antibody, V domains shown) VH: QVQLQESGPGLVKPSETLSLTCTVSSGPMSDYYWSWIRQPPGKGLEWIGHVSVSHGGRTKSNPSVMSRVTISVETSKNQFSLKLTSVTAADTAVYYCARLNYYDRSGYHSPDGPSNNWFDPWGQGTLVTVSS VL: not shown | – | 1020 RLU | 818 RLU | – | 1150 RLU | 750 RLU | – | – | 254 RLU | 314 RLU | – | – | – | – | – | – | –
TCN-557 (5081_A04) (antibody, V domains shown) VH: QVQLVQSGAEVKKPGASVKVSCKASGHTFTGYYIHWVRQAPGQGLEWMGWINPDSGATSSAQNFQGRVTMTGDTSSSTAYMELSRLSFDDTAVYYCARVLFTSPFDFWGEGTLVTVSS VL: QAVVTQEPSLAVSPGGTVTLTCGSSTGAVTRGHYPYWFQQKPGQAPRALIYDSAGNRHSWTPARFSGSLLGGKAALTLSGAQPEDEAEYYCLLSYSGVWVFGGGTKLTVL | 46100 RLU | 27300 RLU | 44400 RLU | 41500 RLU | 44900 RLU | 27000 RLU | 21300 RLU | 22200 RLU | – | – | – | – | – | – | – | – | –
TCN-526 (5084_C17) (antibody, V domains shown) VH: EVLMVESGGGLVQPGGSVRLSCVASGFSFSSHWMTWVRQAPGKGLEWVANIEDDGGDKYYVDSVKGRFIISRDNAKNSVYLQMNSLRAEDTAVYFCARGSGSSDRSDYDPHYYYYLDVWGKGATVTVSS VL: DIQLTQSPSSLSASVGDRVTITCRASQSISRYLNWYQQKPGKAPKLLLFAASTLLDGVPSRFSGSGSGTDFTLTISSLQPEDFATYYCQRNHSPSWTFGQGTRVEIK | – | – | – | – | – | – | – | – | – | – | 27800 RLU | 3590 RLU | 3490 RLU | 5660 RLU | 2310 RLU | 1470 RLU | 490 RLU
TCN-540 (5060_F05) (antibody, V domains shown) VH: QVQLVQSGGGVVQPGRSLRLSCAASGFTFSSYAMHWVRQAPGKGLEWVAIISYDGNDQYYTDSVKGRFTISRDSSKVYLQMHRLRPEDTAVYYCAKEFETSGYFHGSFDYWGQGILVTVSS VL: QSALTQPASVSGSPGQSITISCTGTSSDVGGYNYVSWYQQHPGKAPKLLIYEVTNWPSGVSNRFSGSKSGNTASLTISGLQAEDEADYYCSSYAGSSTWVFGGGTRVTVL | 53000 RLU | 47900 RLU | 984 RLU | – | 1360 RLU | 1180 RLU | – | 2570 RLU | – | – | – | – | – | – | – | – | –
TCN-553 (5261_C18) (antibody, V domains shown) VH: QVQVVQSGTEVKKPGSSVKVSCQTSGGRFMSYAITWVRQAPGQGLEWMGGIVPVFGTANYAQKFQGRVTITTDDSTRTAYMELSSLRSEDTAVYYCGFRYGSGYGFDSWGQGTLVTVSS VL: EIVLTQSPGTLSLSPGERATLSCRASQSVSSSYLAWYQKKPGQAPRLLIYGASTRATGIPDRFTGSGSGTDFTLSISRLEPEDFAVYYCQHFGTSVFTFGGGTKVEIK | 25200 RLU | 39800 RLU | 23300 RLU | 12200 RLU | 41300 RLU | 49600 RLU | 19200 RLU | 31200 RLU | – | – | – | – | – | – | – | – | –
TCN-542 (5079_A16) (antibody, V domains shown) VH: QVQLQESGPGLVKPSQTLSLTCTVSGGSISSGNYYWNWVRQHPGKGLEWIGYIYYRGSTFYNPSLKSRVTISIDTSKNQFSLRLSSVTAADTAVYYCAKDTRSSLDNYQYGMDVWGQGTTVTVSS VL: QTVVTQEPSLTVSPGGTVTLTCASSTGAVTSSYFPNWFQQKPGQAPRPLIYSTTIRHSWTPARFSGSLLGGKAALTLSGVQPEDEADYYCLLYSGGDPVAFGGGTKLTVL | – | 5180 RLU | – | 14300 RLU | 1120 RLU | – | – | – | – | 900 RLU | – | – | – | – | – | – | –
TCN-546 (5089_L08) (antibody, V domains shown) VH: QVQLQQWGAGLLKPSETLSLTCGVYGGSLSDYYWSWIRQPPGKGLEWIGEINHSGGTNYNPSLKRRVTISVDTSKKQFSLKMNSVTAADTAVYYCARGTDPDTEVYCRAGNCAAFDFWGQGTLVTVSS VL: EIVLTQSPGTLSLSPGERATLSCRASHFVIGRAVAWYQQKPGQAPRLLIYGASSRATGIPDRFSGSGSGTDFTLTISRLETEDFAVFYCQHYGSSPRYAFGQGTKLEIK | 28500 RLU | 1730 RLU | 1080 RLU | – | 955 RLU | – | – | 40900 RLU | – | 1350 RLU | – | – | – | – | – | – | –
TCN-554 (5277_M05) (antibody, V domains shown) VH: QVQLVQSGADLKKPGASVKVSCKASGYTFTDYYIHWVRQAPGQGLEWMGWINPESGDTKYAQKFQGRVTMTRDTSITTAYMELGRLRSDDTAVYYCARDVSTTWSWFAPWGQGTLVTVSS VL: DIVMTQSPDSLAVSLGERATINCRSSQSIFHNSNNENYLAWYQQKPGQPPKLLIYWASTRESGVPDRFSGSGSGTDFTLTISSLQAEDVAVYFCQQYYNAPLTFGGGTKVEIK | 25300 RLU | 2620 RLU | – | 5400 RLU | 1260 RLU | 992 RLU | – | – | – | – | – | – | – | – | – | – | –
TCN-550 (5096_F06) (antibody, V domains shown) VH: QVQLQESGPGLVKPSETLSLTCTVSGASINSHYWSWIRQPPGKGLEWIGYVYYSGSTTYNPSLKSRVTLSVDTSKNQFSLNLSSVTAADTAFYYCARHPYDVLTGSGDWFDPWGQGTLVTVSS VL: SYVLTQAPSVSVAPGQTARITCGGNAIGSKKVHWYQHKAGQAPVLVVYDDTDRPSGIPERFSGSNSWSTATLTINRVEAGDEADYYCQVWDFTIDHVVFGGGTKLTVL | 37800 RLU | 731 RLU | 628 RLU | – | 1010 RLU | 758 RLU | – | 9000 RLU | – | – | – | – | – | – | – | – | –
